Test results as given in US20150351390A1, “COMPOSITIONS AND METHODS FOR AUXIN-ANALOG CONJUGATION” (PIONEER HI-BRED INTERNATIONAL, INC., priority 2012, published 2015).

Tests used:
[1] = LC-MS assay of GH3 conjugation of IAA with Asp or Glu; type: biochemical; details: for kcat (hrs−1) IAA-Asp: conjugation of IAA with Asp by recombinant GH3 protein, IAA-Asp product by LC-MS; for kcat (hrs−1) IAA-Glu: conjugation of IAA with Glu by recombinant GH3 protein, IAA-Glu product by LC-MS
In short: (§1)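 Rxn: 20 mM Tris-HCl pH 8.0, 5 mM MgCl2, 1 mM DTT, 5 mM ATP, 5 mM auxin, 5 mM Asp/Glu, 44–164 μg/mL purified His-GH3; 30° C., 3 h. MeOH quench, supernatant diluted 20×, LC-MS vs conjugate standards.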

[2] = LC-MS assay of GH3 conjugation of 2,4-D with Asp or Glu; type: biochemical; details: 5 mM 2,4-D substrate; for kcat (hrs−1) 2,4-D-Asp: conjugation of 2,4-D with Asp by recombinant GH3 protein, 2,4-D-Asp product by LC-MS; for kcat (hrs−1) 2,4-D-Glu: conjugation of 2,4-D with Glu by recombinant GH3 protein, 2,4-D-Glu product by LC-MS
In short: as §1

B1: AtGH3-5: GH3 protein, accession O81829 (protein, listed as Arabidopsis thaliana)
chain: MPEAPKKESLEVFDLTLDQKNKQKLQLIEELTSNADQVQRQVLEEILTRNADVEYLRRHDLNGRTDRETFKNIMPVITYEDIEPEINRIANGDKSPILSSKPISEFLTSSGTSGGERKLMPTIEEELDRRSLLYSLLMPVMSQFVPGLENGKGMYFLFIKSESKTPGGLPARPVLTSYYKSSHFKERPYDPYTNYTSPNETILCSDSYQSMYSQMLCGLCQHQEVLRVGAVFASGFIRAIKFLEKHWIELVRDIRTGTLSSLITDPSVREAVAKILKPSPKLADFVEFECKKSSWQGIITRLWPNTKYVDVIVTGTMSQYIPTLDYYSNGLPLVCTMYASSECYFGVNLRPLCKPSEVSYTLIPSMAYFEFLPVHRNNGVTNSINLPKALTEKEQQELVDLVDVKLGQEYELVVTTYAGLCRYRVGDLLRVTGFKNKAPQFSFICRKNVVLSIDSDKTDEVELQNAVKNAVTHLVPFDASLSEYTSYADTSSIPGHYVLFWELCLDGNTPIPPSVFEDCCLAVEESFNTVYRQGRVSDKSIGPLEIKIVEPGTFDKLMDYAISLGASINQYKTPRCVKFAPIIELLNSRVVDSYFSPKCPKWVPGHKQWGSN
[1]
  kcat (hrs−1) IAA-Asp: 578.727 h⁻¹
  kcat (hrs−1) IAA-Glu: 68.086 h⁻¹
[2]
  kcat (hrs−1) 2,4-D-Asp: 2.309 h⁻¹
  kcat (hrs−1) 2,4-D-Glu: 0.795 h⁻¹

B2: AtGH3-4: GH3 protein, accession Q9LQ68 (protein, listed as Arabidopsis thaliana)
chain: MAVDSLLQSGMASPTTSETEVKALKFIEEITRNPDSVQEKVLGEILSRNSNTEYLKRFDLNGAVDRKSFKSKVPVVIYEDLKTDIQRISNGDRSPILSSHPITEFLTSSGTSAGERKLMPTIEEDINRRQLLGNLLMPVMNLYVPGLDKGKGLYFLFVKSESTTSGGLPARPALTSYYKSDYFRTSDSDSVYTSPKEAILCCDSSQSMYTQMLCGLLMRHEVNRLGAVFPSGLLRAISFLQNNWKELSQDISTGTLSSKIFDHAIKTRMSNILNKPDQELAEFLIGVCSQENWEGIITKIWPNTKYLDVIVTGAMAEYIPMLEYYSGGLPMASMIYASSESYFGINLNPMCKPSEVSYTIFPNMAYFEFLPHNHDGDGGVEATSLVELADVEVGKEYELVITTYAGLYRYRVGDILRVTGFHNSAPQFKFIRRENVLLSIESDKTDEADLQKAVENASRLLAEQGTRVIEYTSYADTKTIPGHYVIYWELLSRDQSNALPSDEVMAKCCLEMEESLNAVYRQSRVSDKSIGPLEIRVVQNGTFEELMDFSISRGSSINQYKVPRCVSLTPIMKLLDSRVVSAHFSPSLPHWSPERRH
[1]
  kcat (hrs−1) IAA-Asp: 414.602 h⁻¹
  kcat (hrs−1) IAA-Glu: 37.932 h⁻¹
[2]
  kcat (hrs−1) 2,4-D-Asp: 2.032 h⁻¹
  kcat (hrs−1) 2,4-D-Glu: 0.594 h⁻¹

B3: AtGH3-6: GH3 protein, accession Q9LSQ4 (protein, listed as Arabidopsis thaliana)
chain: MPEAPKIAALEVSDESLAEKNKNKLQFIEDVTTNADDVQRRVLEEILSRNADVEYLKRHGLEGRTDRETFKHIMPVVTYEDIQPEINRIANGDKSQVLCSNPISEFLTSSGTSGGERKLMPTIEEELDRRSLLYSLLMPVMDQFVPGLDKGKGMYFLFIKSESKTPGGLPARPVLTSYYKSSHFKNRPYDPYTNYTSPNQTILCSDSYQSMYSQMLCGLCQHKEVLRVGAVFASGFIRAIKFLEKHWPELARDIRTGTLSSEITDSSVREAVGEILKPDPKLADFVESECRKTSWQGIITRLWPNTKYVDVIVTGTMSQYIPTLDYYSNGLPLVCTMYASSECYFGVNLRPLCKPSEVSYTLIPNMAYFEFLPVHRNSGVTSSISLPKALTEKEQQELVDLVDVKLGQEYELVVTTYAGLYRYRVGDVLSVAGFKNNAPQFSFICRKNVVLSIDSDKTDEVELQNAVKNAVTHLVPFDASLSEYTSYADTSSIPGHYVLFWELCLNGNTPIPPSVFEDCCLTIEESLNSVYRQGRVSDKSIGPLEIKMVESGTFDKLMDYAISLGASINQYKTPRCVKFAPIIELLNSRVVDSYFSPKCPKWSPGHKQWGSN
[1]
  kcat (hrs−1) IAA-Asp: 447.107 h⁻¹
  kcat (hrs−1) IAA-Glu: 14.154 h⁻¹
[2]
  kcat (hrs−1) 2,4-D-Asp: 2.136 h⁻¹
  kcat (hrs−1) 2,4-D-Glu: 0.598 h⁻¹

B4: AtGH3-2: GH3 protein, accession AEE86787 (protein, listed as Arabidopsis thaliana)
chain: MAVDSPLQSRMVSATTSEKDVKALKFIEEMTRNPDSVQEKVLGEILTRNSNTEYLKRFDLDGVVDRKTFKSKVPVVTYEDLKPEIQRISNGDCSPILSSHPITEFLTSSGTSAGERKLMPTIEEDLDRRQLLYSLLMPVMNLYVPGLDKGKGLYFLFVKSESKTSGGLPARPVLTSYYKSDHFKRRPYDPYNVYTSPNEAILCSDSSQSMYAQMLCGLLMRHEVLRLGAVFASGLLRAISFLQNNWKELARDISTGTLSSRIFDPAIKNRMSKILTKPDQELAEFLVGVCSQENWEGIITKIWPNTKYLDVIVTGAMAQYIPTLEYYSGGLPMACTMYASSESYFGINLKPMCKPSEVSYTIMPNMAYFEFLPHNHDGDGAAEASLDETSLVELANVEVGKEYELVITTYAGLYRYRVGDILRVTGFHNSAPQFKFIRRKNVLLSVESDKTDEAELQKAVENASRLFAEQGTRVIEYTSYAETKTIPGHYVIYWELLGRDQSNALMSEEVMAKCCLEMEESLNSVYRQSRVADKSIGPLEIRVVRNGTFEELMDYAISRGASINQYKVPRCVSFTPIMELLDSRVVSAHFSPSLPHWSPERRR
[1]
  kcat (hrs−1) IAA-Asp: 511.761 h⁻¹
  kcat (hrs−1) IAA-Glu: 30.640 h⁻¹
[2]
  kcat (hrs−1) 2,4-D-Asp: 1.200 h⁻¹
  kcat (hrs−1) 2,4-D-Glu: 0.131 h⁻¹

B5: AtGH3-1: GH3 protein, accession O82333 (protein, listed as Arabidopsis thaliana)
chain: MAVDSNLSSPLGPPACEKDAKALRFIEEMTRNADTVQENLLAEILARNADTEYLRRFNLCGATDRDTFKTKIPVITYEDLQPEIQRIADGDRSPILSAHPISEFLTSSGTSAGERKLMPTIKEELDRRQLLYSLLMPVMNLYVPGLDKGKGMYFLFVKSETKTPGGLPARPVLTSYYKSEHFRSRPYDPYNVYTSPNEAILCPDSFQSMYTQMLCGLLDRLSVLRVGAVFASGLLRAIRFLQLHWSRFAHDIELGCLDSEITDPSIRQCMSGILKPDPVLAEFIRRECKSDNWEKIITRIWPNTKYLDVIVTGAMAQYIPTLEYYSGGLPMACTMYASSECYFGLNLNPMSKPSEVSYTIMPNMAYFEFIPLGGTKAVELVDVNIGKEYELVVTTYAGLCRYRVGDILRVTGFHNSAPQFHFVRRKNVLLSIDSDKTDESELQKAVENASSILHEECGSRVAEYTSYADTSTIPGHYVLYWELLVRDGARQPSHETLTRCCLGMEESLNSVYRQSRVADNSVGPLEIRVVRNGTFEELMDYAISRGASINQYKVPRCVNFTPIVELLDSRVVSAHFSPSLPHWTPERRRR
[1]
  kcat (hrs−1) IAA-Asp: 437.707 h⁻¹
  kcat (hrs−1) IAA-Glu: 19.230 h⁻¹
[2]
  kcat (hrs−1) 2,4-D-Asp: 1.188 h⁻¹
  kcat (hrs−1) 2,4-D-Glu: 0.136 h⁻¹

B6: PtGH3-7: GH3 protein, accession EEE84166 (protein, listed as Populus trichocarpa)
chain: MLPVFDPNDNEAGLKLLEDLTNNACQIQQQVLEEILATNLHTEYLKSFLNGDSGKENFKNKVPIVNYEDIKPCIERIANGEPSSIISTQPITELLTSSGTSGGQPKIMPSTAEELERKTFFYNLLVPVMNKYVDGLDQGKAMYLLFIKPEISTPSGLMARPVLTSYYKSNNFRNRAFNRYNVYTSPDETILCSDSKQSMYCQLLCGLVQRDEVLRVGAIFASAFLRAIKFLEEYLKELCSNIRTGSVSDWITDPNCRNAVLSILSKPNSELADLIEDECSGKSWEGIIKKLWPRTKYIEVIVTGSMAQYIPTLEFYSGGLPLVSTMYGSSECYLGINFKPLSNPYDVSYTLLPNMAYFEFLPVDNNHKEVVPDVQCNGVSVTDRNGKEKVEAVDLVDVKLGHYYELIVTTFTGLYRYRVGDILMVTGFYNNAPQFRFVHRRNVVLSIDTDKTNEEDLLKAVTQAKVLLEPLGFLLTEYTSFADTASIPGHYVLFWELKMRGTNDLPELDPVIMEQCCSIVEESLDSVYRRCRKKDKSIGPLEVRVVTHGTFDALMDFCVSQGSSVNQYKTPRCIKSEEALKILDSRVVGRFSSNKTPFWEPFRIET
[1]
  kcat (hrs−1) IAA-Asp: 38.668 h⁻¹
  kcat (hrs−1) IAA-Glu: 450.548 h⁻¹
[2]
  kcat (hrs−1) 2,4-D-Asp: 0.547 h⁻¹
  kcat (hrs−1) 2,4-D-Glu: 3.487 h⁻¹
